From patent US20210032343A1 (published 2021)

Tests used:
[1] = biological target: T1, recombinant human PD-1-Fc (human, UniProt Q15116 25-167); test: competition ELISA; blocking PD-1/PD-L2
[2] = biological target: recombinant human PD-1 (product No. 10377-H08H, Beijing Yiqiao Shenzhou) (human, UniProt Q15116 25-167); test: ELISA
[3] = biological target: T1, recombinant human PD-1-Fc; test: competition ELISA; blocking PD-1/PD-L1

T1 sequence (Q15116 25-167): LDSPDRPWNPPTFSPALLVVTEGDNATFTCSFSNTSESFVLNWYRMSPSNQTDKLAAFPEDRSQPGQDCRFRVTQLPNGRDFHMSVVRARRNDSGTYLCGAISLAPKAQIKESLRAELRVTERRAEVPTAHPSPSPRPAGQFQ
Chain of recombinant human PD-1 (product No. 10377-H08H, Beijing Yiqiao Shenzhou) (Q15116 25-167): as above

B1: PD-1 monoclonal antibody (antibody, V domains shown)
VH: QVQLVQSGAEVKKPGSSVKVSCKASGGTFSSTAISWVRQAPGQGLEWMGGIWPSFGTASYAQKFQGRVTITADESTSTAYMELSSLRSEDTAVYYCARAEYSSTGIFDYWGQGTLVTVSS
VL: DIQMTQSPSSVSASVGDRVTITCRASQGISSWLAWYQQKPGKAPKLLISAASSLQSGVPSRFSGSGSGTDFTLTISSLQPEDFATYYCQQANHLPFTFGGGTKVEIK
[1]
  IC50: 2.89 nM
[2]
  EC50: 0.18 nM
[3]
  IC50: 2.71 nM
